In patent US20170183640A1 (WISCONSIN ALUMNI RESEARCH FOUNDATION, published 2017):

Experiments:
[1] = target: the molecule itself; assay: gel filtration (Superdex 200), self-association, Example 4
[2] = target: the molecule itself; assay: DSG crosslinking, SDS-PAGE, self-association
Text: (§1) The crosslinking covalently traps Ref in oligomeric states. […] Cys11 is responsible for dimerization of the P1 Ref protein.
Upon amino acid sequence analysis of P1 WT and φW39 WT, we noticed that P1 Ref contains Cys11 while φW39 Ref contains Arg11.

[3] = target: the molecule itself; assay: ultracentrifugation, self-association (dimerization)
[4] = target: the molecule itself; assay: DSG crosslinking, SDS-PAGE (FIG. 7), self-association
Text: as §1
In order to determine the role of Cys11, a φW39 R11C variant was constructed and purified. […] The truncation variants' monomeric state was verified by analytical size exclusion (FIG. 9).

Row | Protein | apparent molecular mass by gel filtration [1] | other results
1 | φW39 ΔN47 Ref (enzyme, Plasmid pEAW865; The construct starts with a Met codon from the NdeI site) DRRIAKQKERPPASKTRKSAVKIKSRGLKGRTPTAEERTIANALGTLPCIACYMHGVISEEVSLHHISGRTAPGCHKKQLPLCRWHHQHAAPAEVREKYPWLVPVHADGVVGGKKEFTLLNKSEMELLADAYEMANIMH | 27.6 kDa | 
2 | P1 ΔN76 Ref (enzyme, Purified as in Gruenig et al 2011; The range 77-186 is derived from the name ΔN76) GRTPTAEERRIANALGALPCIACYMHGVISNEVSLHHIAGRTAPGCHKKQLPLCRWHHQHAAPAEVREKYPWLVPVHADGVVGGKKEFTLLNKSEMELLADAYEMANIMH |  | binding result [2]: no binding
3 | P1 wild type Ref (bacteriophage P1 full length Ref protein) (enzyme, Full-length native protein purified from E. coli; The dimer is reported to be held by a Cys11 disulfide bond) MKTIEQKIEQCRKWQKAARERAIARQREKLADPVWRESQYQKMRDTLDRRIAKQKERPPASKTRKSAVKIKSRGLKGRTPTAEERRIANALGALPCIACYMHGVISNEVSLHHIAGRTAPGCHKKQLPLCRWHHQHAAPAEVREKYPWLVPVHADGVVGGKKEFTLLNKSEMELLADAYEMANIMH |  | binding result [3]: binds
4 | φW39 R11C Ref (enzyme, Plasmid pEAW933; Full-length variant) MKTIEQKLEQCREWQKAARERAIARQREKLADPAWRESQYQKMRDSIDRRIAKQKERPPASKTRKSAVKIKSRGLKGRTPTAEERTIANALGTLPCIACYMHGVISEEVSLHHISGRTAPGCHKKQLPLCRWHHQHAAPAEVREKYPWLVPVHADGVVGGKKEFTLLNKSEMELLADAYEMANIMH |  | binding result [4]: binds
5 | φW39 wild type Ref (φW39 phage full length Ref protein) (enzyme, Full-length native protein) MKTIEQKLEQRREWQKAARERAIARQREKLADPAWRESQYQKMRDSIDRRIAKQKERPPASKTRKSAVKIKSRGLKGRTPTAEERTIANALGTLPCIACYMHGVISEEVSLHHISGRTAPGCHKKQLPLCRWHHQHAAPAEVREKYPWLVPVHADGVVGGKKEFTLLNKSEMELLADAYEMANIMH | 35 kDa | 
6 | φW39 ΔN21 Ref (enzyme, Plasmid pEAW886; The construct starts with a Met codon from the NdeI site) AIARQREKLADPAWRESQYQKMRDSIDRRIAKQKERPPASKTRKSAVKIKSRGLKGRTPTAEERTIANALGTLPCIACYMHGVISEEVSLHHISGRTAPGCHKKQLPLCRWHHQHAAPAEVREKYPWLVPVHADGVVGGKKEFTLLNKSEMELLADAYEMANIMH | 33.6 kDa | 
